From patent US20070243589A1 (Pfizer, published 2007)

Assays:
[1] = target: T1, human IL-22 (human, UniProt Q9GZX6 34-179); test: cell-based or functional assay
T1 sequence: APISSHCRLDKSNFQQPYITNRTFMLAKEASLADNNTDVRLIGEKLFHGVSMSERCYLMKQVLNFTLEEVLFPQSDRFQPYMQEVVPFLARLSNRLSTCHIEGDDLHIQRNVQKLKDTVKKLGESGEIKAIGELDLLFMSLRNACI

[2] = target: T2, biotinylated IL-22 with an N-terminal His/FLAG tag (bio.IL-22H/F) (human, UniProt Q9GZX6 34-179, biotinylated (site not stated)); test: DELFIA competition assay: scFv titrated against bio.IL-22H/F binding to the captured IL-22 receptor complex
T2 construct: not shown: N-terminal His/FLAG tag
T2 sequence: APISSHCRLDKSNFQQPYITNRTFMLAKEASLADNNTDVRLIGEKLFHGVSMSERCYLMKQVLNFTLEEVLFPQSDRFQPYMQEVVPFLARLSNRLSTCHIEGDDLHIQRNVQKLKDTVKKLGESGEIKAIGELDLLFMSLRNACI
Method: (§1) Microtiter plates were coated with an IL-22 receptor complex antibody (1 μg/ml in PBS), and incubated for 1.5 hours at room temperature. Plates were washed three times in PBST, and blocked for 1 hour at room temperature with 2% MPBS. After a further 3 washes, diluted cell conditioned medium containing an IL-22 receptor complex was added and incubated overnight at 4° C. Crude scFv supernatants were prepared as described above. The following day, 25 μl of diluted scFv sample and 25 μl of bio.IL-22H/F (6 ng/ml) were added to the washed plates, and incubated for 1.5 hours at room temperature. Plates were washed 3 times in PBST, then binding of bio.IL-22H/F to the IL-22 receptor complex was detected with Europium-Streptavidin and the DELFIA® reagent kit (PerkinElmer). Time Resolved Fluorescence was measured using a Victor 2™ Plate Reader (Perkin Elmer).
(§2) Purified scFv from positive clones identified from the screening were tested in the DELFIA® IL-22 receptor complex competition assay as described above. A titration of scFv concentrations was used in order to establish the clone potency as measured by IC₅₀ values in the assay. Fourteen optimized clones were designated 097D09, 062A09, 062G05, 087B03, 367D04, 368D04, 166B06, 166G05, 375G06, 376B10, 354A08, 355B06, 355E04, and 356A11.

[3] = target: T1, human IL-22; test: cell-based or functional assay; remark: listed apart in the source
[4] = target: T3, IL-26 (human, UniProt Q9NPH9); test: ELISA: plate coated with 1 µg/ml human IL-26, IgG at 1 µg/ml, HRP anti-human IgG, A450
T3 construct: coated on the ELISA plate at 1 µg/ml; also called human IL-26
T3 sequence (cytokine, looked up): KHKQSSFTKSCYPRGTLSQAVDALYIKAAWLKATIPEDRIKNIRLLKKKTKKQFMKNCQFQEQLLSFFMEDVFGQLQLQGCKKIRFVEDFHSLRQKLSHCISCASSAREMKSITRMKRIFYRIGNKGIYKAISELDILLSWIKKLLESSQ
Method: (§3) Cross species reactivity of germlined and non-germlined optimized antibodies were determined as follows: ELISA plates (Costar, Cat. #3590) were coated overnight with 1 μg/ml of rat, mouse, or human IL-22 or human IL-26 in PBS buffer. Plates were washed with PBST buffer (0.05% Tween20 in PBS) 3 times, then blocked with 1% BSA (Sigma A8918)/PBST for 1 hr at RT. Antibodies were added at 1 μg/ml, incubated 1 hr at 25° C. […] The plates were incubated for 1 hour at 25° C., then washed with PBST, and developed with TMB (KPL, Cat. #50-76-04). Reaction was stopped with 0.18 M H₂S0₄. Plates were read at OD 450 nm.

[5] = target: T4, murine IL-22 (murine, UniProt Q9JJY9 34-179); test: ELISA: plate coated with 1 µg/ml antigen, IgG at 1 µg/ml, HRP anti-human IgG, A450
T4 construct: also called mouse IL-22
T4 sequence: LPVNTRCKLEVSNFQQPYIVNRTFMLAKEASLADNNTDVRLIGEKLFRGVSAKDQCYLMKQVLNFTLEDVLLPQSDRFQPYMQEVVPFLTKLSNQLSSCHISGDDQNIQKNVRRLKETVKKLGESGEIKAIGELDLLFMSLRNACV
Method: as §3

[6] = target: T5, BSA (bovine, UniProt P02769); test: ELISA: wells labelled BSA, IgG at 1 µg/ml, HRP anti-human IgG, A450
T5 construct: background wells labelled BSA; also called bovine serum albumin
T5 sequence (P02769 25-607 limits assumed): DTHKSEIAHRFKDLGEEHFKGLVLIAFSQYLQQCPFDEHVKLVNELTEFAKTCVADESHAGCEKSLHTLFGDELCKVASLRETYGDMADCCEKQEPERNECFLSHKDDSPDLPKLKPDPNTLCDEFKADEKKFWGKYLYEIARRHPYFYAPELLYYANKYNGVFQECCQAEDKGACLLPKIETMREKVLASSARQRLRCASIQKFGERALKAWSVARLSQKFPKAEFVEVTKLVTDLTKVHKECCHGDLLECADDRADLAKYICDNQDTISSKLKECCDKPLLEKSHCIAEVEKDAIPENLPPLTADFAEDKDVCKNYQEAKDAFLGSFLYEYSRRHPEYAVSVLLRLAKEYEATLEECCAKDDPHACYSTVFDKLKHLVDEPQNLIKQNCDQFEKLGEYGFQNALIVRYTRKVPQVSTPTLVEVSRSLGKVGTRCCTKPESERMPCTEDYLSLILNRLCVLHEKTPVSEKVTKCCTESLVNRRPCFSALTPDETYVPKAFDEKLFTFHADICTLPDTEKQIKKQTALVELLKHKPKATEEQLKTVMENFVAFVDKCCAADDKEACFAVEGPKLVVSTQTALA
Method: as §3

[7] = target: T2, biotinylated IL-22 with an N-terminal …; test: DELFIA competition assay: scFv titrated against bio.IL-22H/F binding to the captured IL-22 receptor complex; remark: listed apart in the source
Method: (§4) Both the IL-22/IL-22R binding assay (described above) and the IL-22/IL-22 receptor complex assay (described below) were used. ScFv concentrations were titrated in order to establish the clone potencies as measured by assay IC₅₀ values. These were determined using GraphPad Prism software and four-parameter logistic equation curve fitting.
as §1

[8] = target: T2, biotinylated IL-22 with an N-terminal …; test: as above; remark: listed apart in the source
Method: as §1, §2

[9] = target: T2, biotinylated IL-22 with an N-terminal …; test: IL-22 receptor complex inhibition assay (bio.IL-22H/F binding to IL-22 receptor complex, DELFIA), scFv
Method: as §4, §1

[10] = target: T2, biotinylated IL-22 with an N-terminal …; test: biotinylated IL-22 binding IL-22 receptor complex competition assay, purified scFv, parent
Method: as §1
Sequence data for the six parent clones was used to identify the nearest germline sequence for the heavy and light chain of each clone. Appropriate mutations were made using standard site directed mutagenesis techniques with the appropriate mutagenic primers. Mutation of sequences was confirmed by sequence analysis. Purified scFv from the germlined parent clones were tested in the biotinylated IL-22 binding IL-22 receptor complex competition assay as described earlier, in order to establish the clone potency as measured by IC₅₀ values in the assay.

B1: 166B06 scFv (non-germlined) (scFv)
scFv: EVQLVQSGAEVKKPGASVKVSCQASGYTFSDYYIHWVRQTPGQGFEWMGWVNPDTGGTRYAQKFQGWVTMTRDMSNTTAYMELPRLRDDDTAVYYCARDLTGFDPFDIWGQGTLVTVSSGGGSSGGGGSGGGGSAQSVLTQPPSVSVAPGKTATITCGGNNFRNKRVHWYQQRPGQAPVLVIYYDSDRPSGIPERFSGSRSGNTATLTISRVEAGDEADFYCQVWDLFNDNGVFGGGTKLTVLGAAAH
notes: Optimized clone derived from GIL68
IC50 of scFv in BaF3-IL-22 proliferation assay [1]: 0.46 nM | IC50 [2]: 0.62 nM

B2: 355B06 germlined IgG (antibody, V domains shown)
VH: QVQLVQSGAEVKKPGASVKVSCKASGYTFTDYYMHWVRQAPGQGLEWVGWINPYTGSAFYAQKFRGRVTMTRDTSISTAYMELSRLRSDDTAVYYCAREPEKFGESSGQLWGRGTLVTVSS
VL: QAVLTQPPSVSGAPGQRVTISCTGSSSNIGAGYGVHWYQQLPGTAPKLLIYGDSNRPSGVPDRFSGSKSGTSASLAITGLQAEDEADYYCQSYDSGLSGYVFGGGTQLTVLG
IC50 (pM) of germlined IgG in BaF3-IL-22R proliferation assay [3]: 92 pM | IC50 of IgG in BaF3-IL-22 proliferation assay [1]: 0.092 nM | binding result [4]: no binding (tested: 1 µg/ml (single concentration)) | binding result [5]: binds | binding result [6]: no binding (tested: 1 µg/ml (single concentration))

B3: 355E04 germlined IgG (antibody, V domains shown)
VH: QVQLVQSGAEVKKPGASVKVSCKASGYTFTHYYMHWVRQAPGQGLEWVGWINPYTGGAFYAQKFQGRVTMTRDTSISTAYMELSRLRSDDTAVYYCAREPEKFDSPNAEIWGRGTLVTVSS
VL: QAVLTQPPSVSGAPGQRVTISCTGSSSNIGAGYGVHWYQQLPGTAPKLLIYGNSNRPSGVPDRFSGSKSGTSASLAITGLQAEDEADYYCQSYDSSLSGYVFGGGTQLTVLG
IC50 (pM) of germlined IgG in BaF3-IL-22R proliferation assay [3]: 100 pM | IC50 of IgG in BaF3-IL-22 proliferation assay [1]: 0.1 nM | binding result [4]: no binding (tested: 1 µg/ml (single concentration)) | binding result [5]: binds | binding result [6]: no binding (tested: 1 µg/ml (single concentration))

B4: 368D04 IgG (non-germlined) (antibody, V domains shown)
VH: EVQLVESGGGVVRPGGSLRLSCAASGFTFDDYGMNWVRQAPGKGLEWVSGVNWNGGTRDYAASVKGRFTISRDNAKNSLYLQMNSLRAEDTALYYCARGWYSGAAWNMGYWGRGTLVTVSS
VL: QAVLTQPSSVSGSPGQSITISCTGASGDVGAYNFVSWYQQHPGKTPKLIIYDVNKRPSGVSNRFSGSKSGNTASLTISGLQAEDESDYYCASLVSDFSVVFGGGTKVTVLG
IC50 of IgG in BaF3-IL-22 proliferation assay [1]: 0.127 nM | binding result [4]: no binding (tested: 1 µg/ml (single concentration)) | binding result [5]: binds | binding result [6]: no binding (tested: 1 µg/ml (single concentration))

B5: 097D09 IgG (non-germlined) (antibody, V domains shown)
VH: EVQLVESGGGLVTPGGSLRLSCAASGFTFSDYYMSWVRQAPGRGLEWVSAISGSGGSTYYADSVKGRITISRDNAKNSLYLQMSSLRSEDTAVYYCARGLWVWDPLDYWGRGTLVTVSS
VL: DIQMTQSPSTLSASIGDRVTITCRASEGIYHWLAWYQQKPGKAPKLLIYKASSLASGAPSRFSGSGFGTDFTLTISSLQPDDFATYYCQQYSEFAWTFGGGTKLEIKR
notes: IgG
IC50 of IgG in BaF3-IL-22 proliferation assay [1]: 0.197 nM | binding result [4]: no binding (tested: 1 µg/ml (single concentration)) | binding result [5]: no binding (tested: 1 µg/ml (single concentration)) | binding result [6]: no binding (tested: 1 µg/ml (single concentration))

B6: GIL68 scFv (non-germlined parent) (scFv)
scFv: EVQLVQSGAEVKKPGASVKVSCQASGYTFSDYYIHWVRQTPGQGFEWMGWVNPDTGGTRYAQKFQGWVTMTRDMSNTTAYMELPRLRDDDTAVYYCARDLTGFDPFDIWGQGTLVTVSSGGGGSGGGGSGGGGSAQSVLTQPPSVSVAPGKTATITCGGNNFRNKRVHWYQQRPGQAPVLVIYYDSDRPSGIPERFSGSRSGNTATLTISRVEAGDEADFYCQVWDSSTDRPLFGGGTKLTVLGAAA
IC50 [2]: 10.6 nM | IC50 [7]: 10 nM | IC50 [8]: 7.45 nM | IC50 [9]: 7 nM | IC50 [10]: 9 nM
